Values belong to the binder of their own block, whether it stands above or below them.
Experiments:
[1] = molecular target: T1, Arc-mCherry (mouse), Q9WV31; test: photon counting histogram (PCH) brightness analysis; live SH-SY5Y cells, cytosol; brightness normalised to monomeric EGFP or mCherry; co-transfected with the other construct or with the free fluorescent protein; 20 to 1,500 nM; details: remark: other sources report otherwise
T1 chain: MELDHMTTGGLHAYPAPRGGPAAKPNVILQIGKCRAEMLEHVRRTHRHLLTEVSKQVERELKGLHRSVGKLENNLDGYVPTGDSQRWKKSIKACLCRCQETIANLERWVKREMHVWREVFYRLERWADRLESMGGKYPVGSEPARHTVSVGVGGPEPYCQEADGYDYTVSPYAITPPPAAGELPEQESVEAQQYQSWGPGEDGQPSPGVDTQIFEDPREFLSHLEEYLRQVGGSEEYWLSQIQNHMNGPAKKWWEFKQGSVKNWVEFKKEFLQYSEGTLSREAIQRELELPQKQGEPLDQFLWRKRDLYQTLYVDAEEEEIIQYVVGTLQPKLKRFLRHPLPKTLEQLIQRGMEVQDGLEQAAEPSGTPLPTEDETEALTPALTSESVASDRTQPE

His-PICK1 = molecular target: T2, His-PICK1 (human, UniProt Q9NRD5 1-415); test: pull-down; soluble His-PICK1 (1, 5 and 10 µM) with GST-Arc (1 µM) or GST (1 µM) bound to glutathione-agarose, or resin alone; 20 mM HEPES pH 7.5, 100 mM NaCl, 1 mM DTT, 1 h at 4 °C; bound PICK1 from SDS-PAGE and BCA assay; details: both partners purified
T2 construct: also called recombinant His-PICK1; source: E. coli BL21-Codon(+) DE3, pQE-80L, purified (HisTrap; SEC when needed)

[2] = molecular target: T1, Arc-mCherry (mouse), Q9WV31; test: TIRF number and brightness (N&B) analysis; live SH-SY5Y cells, plasma membrane; brightness normalised to monomeric EGFP or mCherry; alone or co-transfected; details: remark: other sources report otherwise
[3] = molecular target: the molecule itself; test: as above

- normalized brightness (Norm. ε) [1]: 1.37
- binding result (His-PICK1): binds
- stoichiometry N [2]: 2
B1: GST-Arc (natural protein, mouse, UniProt Q9WV31 1-396, looked up)
chain: T1 chain
notes: Arc (activity-regulated cytoskeleton-associated protein, Arg3.1), mouse cDNA; also called Arg3.1; Activity-regulated cytoskeleton-associated protein; source: pGST.parallel 1 vector, purified (glutathione agarose resin, eluted with 50 mM glutathione; SEC when needed)

B2: EGFP-PICK1 (natural protein, human, UniProt Q9NRD5 1-415, looked up)
chain: MFADLDYDIEEDKLGIPTVPGKVTLQKDAQNLIGISIGGGAQYCPCLYIVQVFDNTPAALDGTVAAGDEITGVNGRSIKGKTKVEVAKMIQEVKGEVTIHYNKLQADPKQGMSLDIVLKKVKHRLVENMSSGTADALGLSRAILCNDGLVKRLEELERTAELYKGMTEHTKNLLRAFYELSQTHRAFGDVFSVIGVREPQPAASEAFVKFADAHRSIEKFGIRLLKTIKPMLTDLNTYLNKAIPDTRLTIKKYLDVKFEYLSYCLKVKEMDDEEYSCIALGEPLYRVSTGNYEYRLILRCRQEARARFSQMRKDVLEKMELLDQKHVQDIVFQLQRLVSTMSKYYNDCYAVLRDADVFPIEVDLAHTTLAYGLNQEEFTDGEEEEEEEDTAAGEPSRDTRGAAGPLDKGGSWCDS
notes: PICK1, 'a human variant of PICK1' ligated to EGFP at the N terminus; source: SH-SY5Y cells, transfected, in live cells; not shown: EGFP, N-terminal, kept
- stoichiometry N [3]: 2

From paper PMC6168463, “Arc/Arg3.1 has an activity-regulated interaction with PICK1 that results in altered spatial dynamics” (Scientific Reports, 2018)
